This is an account of results in paper doi:10.1101/2025.07.08.663636.

For assay [1], the target named is BiP NBD (human BiP nucleotide binding domain, aa 26-405, from 6His-Smt3-BiP NBD) (human) (UniProt P11021). The experiment in a line: MST.
Assay [2] has the same target. The experiment in a line: SPR. A general note: Surface plasmon resonance follows binding to a sensor surface in real time, without labels.

The term Kd denotes the concentration at which binding is half-saturated. Low values mean higher affinity, high ones lower affinity.

Chain of UniProt P11021 (P11021 26-405): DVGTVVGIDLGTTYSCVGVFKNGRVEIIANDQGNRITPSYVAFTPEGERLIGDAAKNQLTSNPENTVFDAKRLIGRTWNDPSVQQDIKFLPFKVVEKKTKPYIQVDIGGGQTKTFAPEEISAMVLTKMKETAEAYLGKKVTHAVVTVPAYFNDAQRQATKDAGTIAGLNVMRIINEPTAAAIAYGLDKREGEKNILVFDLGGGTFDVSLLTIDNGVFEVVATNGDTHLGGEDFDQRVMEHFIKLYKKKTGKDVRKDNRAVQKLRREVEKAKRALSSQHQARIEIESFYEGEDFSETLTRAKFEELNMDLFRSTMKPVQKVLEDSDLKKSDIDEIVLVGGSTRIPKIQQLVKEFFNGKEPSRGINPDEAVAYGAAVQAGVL

“CDNF V118Y-E137A double mutant purified from CHO cells (natural protein)” yielded a dissociation constant Kd in assay [1] of over 10 µM. In turn, “CDNF A134Q purified from CHO cells (natural protein)” registered an equilibrium dissociation constant (Kd) in assay [1] of over 10 µM. Consider “FL-CDNF (aa 1-161) purified from E. coli (natural protein)”, for which the Kd in assay [2] was 23.4 µM.
